# Reference: US20160304571
# B1: USP15 (protein)
# chain: MAEGGAADLDTQRSDIATLLKTSLRKGDTWYLVDSRWFKQWKKYVGFDSWDKYQMGDQNVYPGPIDNSGLLKDGDAQSLKEHLIDELDYILLPTEGWNKLVSWYTLMEGQEPIARKVVEQGMFVKHCKVEVYLTELKLCENGNMNNVVTRRFSKADTIDTIEKEIRKIFSIPDEKETRLWNKYMSNTFEPLNKPDSTIQDAGLYQGQVLVIEQKNEDGTWPRGPSTPKSPGASNFSTLPKISPSSLSNNYNNMNNRNVKNSNYCLPSYTAYKNYDYSEPGRNNEQPGLCGLSNLGNTCFMNSAIQCLSNTPPLTEYFLNDKYQEELNFDNPLGMRGEIAKSYAELIKQMWSGKFSYVTPRAFKTQVGRFAPQFSGYQQQDCQELLAFLLDGLHEDLNRIRKKPYIQLKDADGRPDKVVAEEAWENHLKRNDSIIVDIFHGLFKSTLVCPECAKISVTFDPFCYLTLPLPMKKERTLEVYLVRMDPLTKPMQYKVVVPKIGNILDLCTALSALSGIPADKMIVTDIYNHRFHRIFAMDENLSSIMERDDIYVFEININRTEDTEHVIIPVCLREKFRHSSYTHHTGSSLFGQPFLMAVPRNNTEDKLYNLLLLRMCRYVKISTETEETEGSLHCCKDQNINGNGPNGIHEEGSPSEMETDEPDDESSQDQELPSENENSQSEDSVGGDNDSENGLCTEDTCKGQLTGHKKRLFTFQFNNLGNTDINYIKDDTRHIRFDDRQLRLDERSFLALDWDPDLKKRYFDENAAEDFEKHESVEYKPPKKPFVKLKDCIELFTTKEKLGAEDPWYCPNCKEHQQATKKLDLWSLPPVLVVHLKRFSYSRYMRDKLDTLVDFPINDLDMSEFLINPNAGPCRYNLIAVSNHYGGMGGGHYTAFAKNKDDGKWYYFDDSSVSTASEDQIVSKAAYVLFYQRQDTFSGTGFFPLDRETKGASAATGIPLESDEDSNDNDNDIENENCMHTN
# Assays:
# [1] = biological target: Lys29-linked diubiquitin, P0CG48
# Sequence of Lys29-linked diubiquitin, P0CG48 (P0CG48 whole entry, looked up): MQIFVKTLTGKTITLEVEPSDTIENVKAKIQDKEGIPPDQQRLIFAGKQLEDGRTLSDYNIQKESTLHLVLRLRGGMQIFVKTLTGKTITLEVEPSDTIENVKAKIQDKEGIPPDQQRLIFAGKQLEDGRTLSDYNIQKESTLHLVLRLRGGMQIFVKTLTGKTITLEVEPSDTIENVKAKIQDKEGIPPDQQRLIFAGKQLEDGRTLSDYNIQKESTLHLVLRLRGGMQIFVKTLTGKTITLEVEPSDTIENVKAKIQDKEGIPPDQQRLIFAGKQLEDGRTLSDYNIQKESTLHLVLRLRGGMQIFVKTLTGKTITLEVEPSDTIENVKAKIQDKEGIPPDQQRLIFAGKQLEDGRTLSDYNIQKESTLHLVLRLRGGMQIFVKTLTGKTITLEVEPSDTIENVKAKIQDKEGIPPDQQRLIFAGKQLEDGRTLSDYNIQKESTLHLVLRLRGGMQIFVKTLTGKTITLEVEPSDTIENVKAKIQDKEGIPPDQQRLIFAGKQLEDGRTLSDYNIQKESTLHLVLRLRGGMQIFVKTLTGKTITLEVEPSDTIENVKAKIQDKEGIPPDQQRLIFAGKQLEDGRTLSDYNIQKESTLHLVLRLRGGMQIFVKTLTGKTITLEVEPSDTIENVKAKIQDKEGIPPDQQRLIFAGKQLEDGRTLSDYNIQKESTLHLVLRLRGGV
# [2] = biological target: Lys63-linked diubiquitin (enzymatically assembled), P0CG48
# Sequence of Lys63-linked diubiquitin (enzymatically assembled), P0CG48 (P0CG48 whole entry, looked up): as above
# [3] = biological target: Lys6-linked diubiquitin, P0CG48
# Sequence of Lys6-linked diubiquitin, P0CG48 (P0CG48 whole entry, looked up): as above
protein,measurement,setting,value
B1,cleavage in in vitro deubiquitinase assay (SDS-PAGE),[1],"appreciably higher resistance to hydrolysis by USP2, USP15 and USP21 than K6- and K63-linked ubiquitin"
same,cleavage in in vitro deubiquitinase assay (SDS-PAGE),[2],disassembled this chain type as efficiently as K63-linked chains
same,cleavage in in vitro deubiquitinase assay (SDS-PAGE),[3],disassembled this chain type as efficiently as K63-linked chains
